Tests used:
GDF8, O14793 [1] = test: SPR (Biacore); receptor-Fc captured by anti-Fc antibody, ligand injected; conditions: remark: other sources report otherwise
GDF8, O14793 [2] = test: SPR (Biacore); receptor-Fc captured by anti-Fc antibody, ligand injected; † Very low signal; conditions: remark: other sources report otherwise

Sequence of GDF8, O14793 (O14793 267-375 limits assumed): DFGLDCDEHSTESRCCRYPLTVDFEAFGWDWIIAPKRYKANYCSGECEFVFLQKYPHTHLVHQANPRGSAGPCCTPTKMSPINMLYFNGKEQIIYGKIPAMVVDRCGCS

B1: ALK4-Fc homodimer, P36896 24-126 (Fc fusion, not shown: a dimerising Fc or GST)
chain: SGPRGVQALLCACTSCLQANYTCETDGACMVSIFNLDGMEHHVRTCIPKVELVPAGKPFYCLSSEDLRNTHCCYTDYCNRIDLRVPSGHLKEPEHPSMWGPVE
B1 was tested, and the koff (GDF8, O14793 [1]) was 0.0019 s⁻¹, the kon (GDF8, O14793 [1]) was 130000 M⁻¹ s⁻¹ and the Kd (GDF8, O14793 [2]) was 15 nM.
